Laboratory results taken from patent US7285395B2, “Stearoyl-CoA desaturase 4 gene” (Wisconsin Alumni Research Foundation, priority 2004, dated 2007).

Legend:
SCD = SCD enzyme activity in heart microsomes of leptin-treated ob/ob mice; format: in vivo, mouse; settings: leptin 12 days, [1-14C]stearoyl-CoA substrate, elevated 3-fold in untreated ob/ob
Method: (§1) A, SCD activity: Microsomes were prepared from hearts of PBS-treated, ob/ob, ob/ob pair-fed (PF), and leptin-treated (ob/ob-Leptin) mice, and SCD enzyme activity was determined by measuring the incorporation of radioactivity in oleoyl-CoA using [1-^14C]stearoyl-CoA as a substrate. The reaction products were separated by TLC, and the radioactivity was quantitated. Each value represents the mean±S.E. (n=4). B, Levels of monounsaturated fatty acids in the hearts of ob/ob mice: Total fatty acids were extracted from heart of ob/ob mice treated with either leptin or PBS and wild type controls quantitated by GLC as described in the example below. *, p<0.05 versus wt-PBS; #,p<0.05 versus ob/ob-PBS. C, Total RNA was prepared from hearts of PBS or leptin-treated ob/ob mice and used to measure SCD1, SCD2, and SCD4 mRNA levels by quantitative RT-PCR analysis. The fold change relative to that of wild type was calculated after correction for the levels of cyclophilin used as a standard. Each value represents the mean±S.E. (n=4).
(§2) Subcutaneous Leptin Treatment—ob/ob mice were individually caged and allowed to acclimate for a number of days prior to the start of the experiment. […] Body mass and food intake were measured daily. […]

ob/ob mice = experiment: monounsaturated fatty acid content of hearts of leptin-treated ob/ob mice by GLC; format: in vivo, mouse; settings: leptin treatment, GLC of total fatty acids
Method: as §1, with “standard. […]” for “standard. Each value represents the mean±S.E. (n=4).”
as §2
ob/ob mice have a mutation in the leptin gene and are a model of obesity, insulin resistance, and diabetes. […] To determine which SCD isoform(s) accounted for these effects, we measured RNA levels of mSCD1, mSCD2, and mSCD4. […]

B1: leptin: recombinant mouse leptin (Amgen, Thousand Oaks, Calif.) (protein, UniProt P41160 22-167, looked up)
Leptin: VPIQKVQDDTKTLIKTIVTRINDISHTQSVSAKQRVTGLDFIPGLHPILSLSKMDQTLAVYQQVLTSLPSQNVLQIANDLENLRDLLHLLAFSKSCSLPQTSGLQKPESLDGVLEASLYSTEVVALSRLQGSLQDILQQLDVSPEC
For B1, the “SCD activity in heart” value (SCD) was “completely normalized to wild type levels” and the “18:1 content of heart” value (ob/ob mice) was “reduced to levels comparable with those in wild type mice”.
